Measurements as given in article PMC4801485 (Biochemistry, 2015).

Tests used:
Experiment in all cases: NMR line shape analysis
[1] = biological target: cyclophilin domain of human Cyclophilin C (residues 25-212) (human, UniProt P45877 25-212)
[2] = biological target: cyclophilin domain of human Cyclophilin B (residues 39-216) (human, UniProt P23284 39-216)
human Cyclophilin A = human Cyclophilin A (human, UniProt P62937 1-165)
Chain of human Cyclophilin A (P62937 whole entry): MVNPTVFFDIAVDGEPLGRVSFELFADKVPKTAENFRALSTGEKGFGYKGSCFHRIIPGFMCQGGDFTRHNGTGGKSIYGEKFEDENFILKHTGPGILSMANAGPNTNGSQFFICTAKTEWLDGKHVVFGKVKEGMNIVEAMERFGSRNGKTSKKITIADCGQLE

Chain of cyclophilin domain of human Cyclophilin B (residues 39-216) (P23284 39-216): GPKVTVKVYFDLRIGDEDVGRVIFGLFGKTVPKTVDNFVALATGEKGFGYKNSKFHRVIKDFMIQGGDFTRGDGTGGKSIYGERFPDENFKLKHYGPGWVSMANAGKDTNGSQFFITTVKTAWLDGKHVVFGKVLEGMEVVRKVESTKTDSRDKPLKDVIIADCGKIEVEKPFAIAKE
Chain of cyclophilin domain of human Cyclophilin C (residues 25-212) (P45877 25-212): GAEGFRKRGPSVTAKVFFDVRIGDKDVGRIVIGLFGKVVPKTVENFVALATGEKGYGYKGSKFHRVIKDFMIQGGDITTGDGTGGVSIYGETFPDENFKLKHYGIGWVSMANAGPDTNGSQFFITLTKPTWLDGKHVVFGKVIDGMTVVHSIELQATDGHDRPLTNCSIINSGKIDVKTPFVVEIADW

koff of the cis isomer (kCD) [1]: 260 s⁻¹ | koff of the trans isomer (kBA) [1]: 1620 s⁻¹ | kon of the cis isomer (kDC) [1]: 7.9e+06 M⁻¹ s⁻¹ | kon of the trans isomer (kAB) [1]: 4.2e+06 M⁻¹ s⁻¹ | koff of the cis isomer (kCD) [2]: 200 s⁻¹ | koff of the trans isomer (kBA) [2]: 960 s⁻¹ | kon of the cis isomer (kDC) [2]: 4.9e+06 M⁻¹ s⁻¹ | kon of the trans isomer (kAB) [2]: 2.1e+06 M⁻¹ s⁻¹ | koff of the cis isomer (kCD) (human Cyclophilin A): 170 s⁻¹ | koff of the trans isomer (kBA) (human Cyclophilin A): 550 s⁻¹ | kon of the cis isomer (kDC) (human Cyclophilin A): 1e+07 M⁻¹ s⁻¹ | kon of the trans isomer (kAB) (human Cyclophilin A): 3.2e+06 M⁻¹ s⁻¹
Binder: GSFGPDLRAGD [peptide substrate GSFGPDLRAGD]
